Article PMC6037002, “Drug targeting to decrease cardiotoxicity – determination of the cytotoxic effect of GnRH-based conjugates containing doxorubicin, daunorubicin and methotrexate on human cardiomyocytes and endothelial cells” (Beilstein Journal of Organic Chemistry, 2018)
Like-named read-outs stand apart in the source and are kept apart here.

Legend:
[1] = tested on: primary human cardiac myocytes (HCM); conditions: for delta slope (DS), short-term / delta slope (DS), long-term: HCM, three parallels; for delta slope (DS), short-term: 0–2 h; for delta slope (DS), long-term: 0–72 h
[2] = tested on: human acute monocytic leukemia (MonoMac6) cells; conditions: cited from earlier work
Excerpt: (§1) Table 1 Comparative study of cytotoxic effects and cardiotoxicity elicited by GnRH-based antitumor compounds (1–15) and reference substances (AN-152, Dox, Dau, Mtx). IC50 values show antitumor cytotoxic characteristics of the conjugates in human breast cancer (MCF-7), human colorectal adenocarcinoma (HT-29) and human acute monocytic leukemia (MM6) derived cell lines as representative tumor cells.

[3] = tested on: MCF-7 human breast adenocarcinoma cells; conditions: MTT assay; cited from earlier work
Excerpt: as §1

[4] = tested on: HT-29 human colon adenocarcinoma cells; conditions: MTT assay; cited from earlier work
Excerpt: as §1

[5] = cited from earlier work
Experimental: The GnRH derivatives were prepared by solid phase peptide synthesis (SPPS) according to Fmoc/t-Bu strategy (Supporting Information File 2). Three drug molecules, doxorubicin (Dox), daunorubicin (Dau) and methotrexate (Mtx), were employed in the preparation of drug conjugates. Dox has three potential conjugation sites; i) a primary OH group at C-14 on the aglycone part, which is suitable for ester bond formation, ii) an oxo group at C-13 is available for the generation of an oxime linkage and iii) the amino group on the daunosamine sugar moiety, which can be used for amide bond formation. The d ...

[6] = tested on: human umbilical vein endothelial cells (HUVEC); assay: Impedimetric measurement (xCELLigence SP), delta slope, HUVEC; conditions: for delta slope (DS), short-term / delta slope (DS), long-term: HUVEC, three parallels; for delta slope (DS), short-term: 0–2 h; for delta slope (DS), long-term: 0–72 h; for Cardiotoxicity, HUVEC: grade +++/++/+/0, key not given, summary of impedimetric cytotoxicity; for cytotoxic effect on HUVEC, result in words: long-term (0–72 h), 10^−8–10^−6 mol/L, impedimetry, one-way ANOVA

## [^4Lys(Ac)]-GnRH-III(Dau=Aoa) [conjugate 5]
[1]; Table S3b, 10^-6 mol/L
  delta slope (DS), short-term: -0.005
  delta slope (DS), long-term: −0.003
[1]; Table S3b, 10^-7 mol/L
  delta slope (DS), short-term: -0.001
  delta slope (DS), long-term: -0.001
[1]; Table S3b, 10^-8 mol/L
  delta slope (DS), short-term: -0.002
  delta slope (DS), long-term: 0.001
[2]
  IC50: 925 ± 70 nM
[3]
  IC50: 3100 ± 1700 nM
[4]
  IC50: 7400 ± 2600 nM
[5]
  enzymatic stability, result in words: increased the enzymatic stability
[6]; Table S3a, 10^-6 mol/L
  delta slope (DS), short-term: 0.002
  delta slope (DS), long-term: -0.001
[6]; Table S3a, 10^-7 mol/L
  delta slope (DS), short-term: 0.004
  delta slope (DS), long-term: -0.001
[6]; Table S3a, 10^-8 mol/L
  delta slope (DS), short-term: -0.001
  delta slope (DS), long-term: -0.001
[6]
  Cardiotoxicity, HUVEC: 0
  cytotoxic effect on HUVEC, result in words: completely lost the cytotoxic effect

## Glp-His-Trp-Ser-Tyr-D-Lys(Dox-O-glut)-Leu-Arg-Pro-Gly-NH2 [AN-152, reference compound]
[1]; Table S2b, 10^-6 mol/L
  delta slope (DS), short-term: 0.008
  delta slope (DS), long-term: −0.023
[1]; Table S2b, 10^-7 mol/L
  delta slope (DS), short-term: -0.001
  delta slope (DS), long-term: −0.008
[1]; Table S2b, 10^-8 mol/L
  delta slope (DS), short-term: 0.001
  delta slope (DS), long-term: -0.001
[1]; Table S2b, 10^-6 mol/L, listed as An-152
  delta slope (DS), long-term: -0.023
[1]; Table S2b, 10^-7 mol/L, listed as An-152
  delta slope (DS), long-term: -0.008
[2]
  IC50: 35 ± 10 nM
[3]
  IC50: 200 ± 100 nM
[4]
  IC50: 1900 ± 300 nM
[6]; Table S2a, 10^-6 mol/L
  delta slope (DS), short-term: 0.031
  delta slope (DS), long-term: −0.051
[6]; Table S2a, 10^-7 mol/L
  delta slope (DS), short-term: 0.014
  delta slope (DS), long-term: −0.029
[6]; Table S2a, 10^-8 mol/L
  delta slope (DS), short-term: -0.004
  delta slope (DS), long-term: -0.005
[6]; Table S2a, 10^-6 mol/L, listed as An-152
  delta slope (DS), long-term: -0.051
[6]; Table S2a, 10^-7 mol/L, listed as An-152
  delta slope (DS), long-term: -0.029

## [^4N-MeSer]-GnRH-III(Dau=Aoa) [conjugate 6]
[1]; Table S4b, 10^-6 mol/L
  delta slope (DS), short-term: 0.001
  delta slope (DS), long-term: 0.001
[1]; Table S4b, 10^-7 mol/L
  delta slope (DS), short-term: -0.001
  delta slope (DS), long-term: -0.002
[1]; Table S4b, 10^-8 mol/L
  delta slope (DS), short-term: -0.005
  delta slope (DS), long-term: -0.002
[1]; grade +++/++/+/0, key not given, summary of impedimetric cytotoxicity
  Cardiotoxicity, HCM: 0
[1]; long-term (0–72 h), 10^−8–10^−6 mol/L (free drugs 10^−12–10^−6 mol/L), impedimetry, one-way ANOVA
  cytotoxic effect on HCM, result in words: completely lost their cytotoxic effect
[2]
  IC50: > 1000 nM
[3]
  IC50: 10600 ± 2100 nM
[5]
  enzymatic stability, result in words: increased the enzymatic stability
[6]; Table S4a, 10^-6 mol/L
  delta slope (DS), short-term: 0.006
  delta slope (DS), long-term: 0.001
[6]; Table S4a, 10^-7 mol/L
  delta slope (DS), short-term: 0.002
  delta slope (DS), long-term: -0.001
[6]; Table S4a, 10^-8 mol/L
  delta slope (DS), short-term: 0.011
  delta slope (DS), long-term: 0.001
[6]
  Cardiotoxicity, HUVEC: 0
  cytotoxic effect on HUVEC, result in words: completely lost the cytotoxic effect
